{"source": "patent US6116237A", "about": "“Methods of dry powder inhalation” (priority 1997, dated 2000)", "assay": "Systemic delivery of calcitonin as model peptide following dosing with the Spiros system, compared to subcutaneous injection", "format": "in vivo", "details": "calcitonin/lactose blend, estimated", "description": "5. Using calcitonin as a model peptide for systemic delivery, the bioactivity following dosing with the Spiros system has been estimated to be greater than 20% compared to a subcutaneous injection."}
{"substance": "calcitonin", "values": [{"measurement": "bioactivity following dosing with the Spiros system compared to a subcutaneous injection (systemic availability)", "value": "greater than 20%"}]}
